Test results: patent US20070098718A1 (Novartis, published 2007)

Molecular target: T1, Recombinant soluble CD40-his (human, UniProt P25942 21-193, limits assumed)
T1 construct: not shown: his tag
Experiment: binding affinity to human CD40 (Biacore per paragraph 64)

T1 sequence (P25942 21-193 limits assumed): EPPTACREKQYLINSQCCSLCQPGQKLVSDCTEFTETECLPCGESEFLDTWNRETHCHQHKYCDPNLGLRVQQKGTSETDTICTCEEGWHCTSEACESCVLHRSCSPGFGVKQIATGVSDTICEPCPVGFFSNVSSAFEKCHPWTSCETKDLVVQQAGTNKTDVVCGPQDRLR

Row | Kd [nM] | Binder
1 | 12 | monoclonal antibody CHIR-5.9 (antibody, human IgG1, kappa, V domains shown, Fully human IgG1 kappa anti-human CD40 mAb; also called mAb CHIR-5.9; antibody of hybridoma 131.2F8.5.9) VH: EVQLVQSGAEVKKPGESLKISCKGSGYSFTSYWIGWVRQMPGKGLEWMGIIYPGDSDTRYSPSFQGQVTISADKSISTAYLQWSSLKASDTAMYYCARGTAAGRDYYYYYGMDVWGQGTTVTVSS VL: AIVMTQPPLSSPVTLGQPASISCRSSQSLVHSDGNTYLNWLQQRPGQPPRLLIYKFFRRLSGVPDRFSGSGAGTDFTLKISRVEAEDVGVYYCMQVTQFPHTFGQGTRLEIKR
2 | 0.5 | monoclonal antibody CHIR-12.12 (antibody, human IgG1, kappa, V domains shown, Fully human IgG1 kappa anti-human CD40 mAb; also called antibody of hybridoma 153.8E2.D10.D6.12.12) VH: QVQLVESGGGVVQPGRSLRLSCAASGFTFSSYGMHWVRQAPGKGLEWVAVISYEESNRYHADSVKGRFTISRDNSKITLYLQMNSLRTEDTAVYYCARDGGIAAPGPDYWGQGTLVTVSS VL: DIVMTQSPLSLTVTPGEPASISCRSSQSLLYSNGYNYLDWYLQKPGQSPQVLISLGSNRASGVPDRFSGSGSGTDFTLKISRVEAEDVGVYYCMQARQTPFTFGPGTKVDIRR
